Tests used:
[1] = conversion of irinotecan by nonspecific carboxylesterases; cited from earlier work
phospho-EGFR = phospho-EGFR ELISA in A431 cells; type: cell-based, human; settings: EGF stimulated
mouse EGFR = mouse EGFR (Mus musculus, UniProt Q01279); assay: Cross reactivity with mouse EGFR; type: binding
phospho-ERK = phospho-ERK ELISA in A431 cells; type: cell-based, human
Description: Cells are serum starved in 1% FBS medium with antibiotics and 2 mM L-glutamine for about 20 hours at 37° C. and 5% carbon dioxide. Cells are then preincubated with varying concentrations of anti-EGFR antibodies for 2 hrs, and then stimulated with human EGF ligand (50 ng/ml) (PeproTech, cat # AF-100-15) for 10 minutes at 37° C. and 5%/carbon dioxide. […] Lysates are either analyzed immediately by ELISA for ERK (a downstream effector of EGFR) and EGFR phosphorylation, or frozen at −80° C. until use.
The phospho-ERK ELISA is performed similarly to the phospho-EGFR ELISA with the following changes: Human pERK ELISA Duoset kit is purchased from R&D Systems (cat# DYC1018-5) and used as recommended by the manufacturer.
A431 cells were treated with a dilution series of antibody and phospho-ERK inhibition measured by ELISA.
Experiments were performed with rhEGF (PeproTech) dosed at a concentration of 50 ng/mL or 500 ng/mL.

Question: Which “activity of metabolite relative to irinotecan” value [1] does the source give for `CCc1c2c(nc3ccc(O)cc13)-c1cc3c(c(=O)n1C2)COC(=O)[C@]3(O)CC` [SN-38, 7-Ethyl-10-hydroxy-camptothecin] here?
Answer: Its value is 100-1000 fold.

B1: P3X: affinity matured anti-EGFR monoclonal antibody (Bin3) of parental ch; VH SEQ ID NO: 23, VL SEQ ID NO: 24 (antibody, V domains shown)
VH: MGFGLSWLFLVAILKGVQCQVQLVQSGAEVKKPGASVKVSCKASGYAFTSYGINWVRQAPGQGLEWMGWISAYNGNTYYAQKLRGRVTMTTDTSTSTAYMELRSLRSDDTAVYYCARDLGGYGSGSVPFDPWGQGTLVTVSS
VL: MGTPAQLLFLLLLWLPDTTGEIVMTQSPATLSVSPGERATLSCRASQSVSSNLAWYQQKPGQAPRLLIYGASTRATGIPARFSGSGSGTEFTLTISSLQSEDFAVYYCQDYRTWPRRVFGGGTKVEIK
Question: With B1 as the molecule, how does the “phospho-EGFR inhibition, single antibody (in words)” value (phospho-EGFR) read?
Answer: The value was “partial phospho-EGFR inhibition”.

B2: P1X: affinity matured anti-EGFR monoclonal antibody (Bin1) of parental ca; VH SEQ ID NO: 19, VL SEQ ID NO: 20 (antibody, V domains shown)
VH: MGFGLSWLFLVAILKGVQCQVQLVQSGAEVKKPGSSVKVSCKASGGTFSSYAISWVRQAPGQGLEWMGSIIPIFGTVNYAQKFQGRVTITADESTSTAYMELSSLRSEDTAVYYCARDPSVNLYWYFDLWGRGTLVTVSS
VL: MGTPAQLLFLLLLWLPDTTGDIQMTQSPSTLSASVGDRVTITCRASQSISSWWAWYQQKPGKAPKLLIYDASSLESGVPSRFSGSGSGTEFTLTISSLQPDDFATYYCQQYHAHPTTFGGGTKVEIK
Question: For B2, which “cross reaction with (binding to) mouse EGFR” value (mouse EGFR) is on record?
Answer: The value was “cross reacts with (binds to) mouse EGFR”.

Question: What about the “phospho-ERK inhibition with 80 nM EGF (in words)” value (phospho-ERK; 80 nM of EGF ligand) of the same molecule?
Answer: Its value is “partial”.

Question: And the “phospho-ERK inhibition (in words)” value (phospho-ERK; EGF 50 ng/ml, dilution series)?
Answer: The value was “dose-dependent inhibition of phospho-ERK activity”.

— patent publication US10072299B2, “Antibodies against epidermal growth factor receptor (EGFR) and uses thereof” (Merrimack Pharmaceuticals, Inc., priority 2011, dated 2018)
